Substrate: N[C@@H](CCC(=O)N[C@H](CSc1ccc([N+](=O)[O-])cc1[N+](=O)[O-])C(=O)NCC(=O)O)C(=O)O
Experiment: TP_TRANSPORTER: uptake in bile canalicular membrane vesicles from ddY mouse
Format: functional, cell membranes, Bile canalicular membrane vesicle

B1: ATP-binding cassette sub-family C member 2 (Mus musculus) (protein)
chain: MDEFCNSTFWNLSLLKSPEADLPLCFEQTVLVWIPLGFLWLLAPWQLYRIYRSRTKRFAITKFYLAKQVFVVCLLILAAIDLSLALTEDTGQATIPPVKYTNPILYLCTWLLVLVIQHCRQCCIQKNSWFLSMFWILSLLCGIFQFQTLIRALLQDSKSNMTYSCLFFVSYGFQIVILILSAFSESSDSTHAPSATASFLSSVTFSWYDSTVLKGYKHPLTIEDVWDIEENLKAKSLTSKFKTIMTKDLQKARQALQRRLKKSQQSPEGTSHGLTKKQSQSQDVLVLEDSKKKKKKSEATKDFPKSWLVKALFKTFYVVILKSFILKLAHDILLFLNPQLLKFLIGFVKDPDSYPWVGYIYAILMFSVTLIQSFFLQCYFQFCFVLGMTVRTTIIASVYKKALTLSNLARRQYTIGETVNLMSVDSQKLMDVTNYIHLLWSSVLQIALSIFFLWRELGPSILAGVGLMVLLVPVNGVLATKIRKIQVQNMKNKDKRLKIMNEILSGIKILKYFAWEPSFKEQVNSIRKKELRNLLRFSQLQTILIFILHLTPTLVSVITFSVYVLVDSQNVLNAEKAFTSITLFNILRFPLAMLPMVISSVIQASVSVDRLEQYLGSDDLDLSAIRHVCHFDKAVQFSEASFTWDRDLEATIQDVNLDIKPGQLVAVVGTVGSGKSSLISAMLGEMENVHGHITIKGSIAYVPQQAWIQNGTIKDNILFGSEYDEKKYQRVIEACALLPDLEMLPGGDMAEIGEKGINLSGGQKHRVSLARATYQDADIYILDDPLSAVDTHVGKHIFNKVVGPNGLLSGKTRILVTHGIHFLPQVDEIVVLGKGTILEKGSYSDLMDKKGVFAKNWKTFMKHSGPEGEATVDNDSEEEDGDCGLIPTVEEIPDDAASLTMRRENSLRRTLSRSSRSGSRRGKSLKSSLKIKSVNALNKKEEVVKGQKLIKKEFVETGKVKFSIYLKYLQAVGWWSLLFIVIFYVLNYVAFIGTNLWLSAWTSDSEKQNGTDNSPSQRDMRIGVFGALGIAQGIFLLSSSLWSIYACRNASKTLHRQLLTNILRAPMSFFDTTPTGRIVNRFAGDISTVDDTLPQTLRSWLLCFFGIVSTLVMICMATPIFIIIIIPLSILYVSVQVFYVATSRQLRRLDSVTKSPIYSHFSETVSGLPVIRAFEHQQRFLANSEKQIDTNQKCVFSWITSNRWLAIRLELVGNLIVFCSALLLVIYKNSLTGDTVGFVLSNALNITQTLNWLVRMTSEVETNIVAVERINEYINVDNEAPWVTDKKPPADWPKKGEIQFNNYQVRYRPELDLVLKGITCNIKSTEKVGVVGRTGAGKSSLTNCLFRILESAGGQIIIDGIDIASIGLHDLRGRLTIIPQDPILFSGNLRMNLDPFNKYSDEEIWRALELAHLKSFVAGLQLGLLHEVTEGGDNLSIGQRQLLCLGRAVLRKSKILVLDEATAAVDLETDSLIQTTIRNEFSQCTVITIAHRLHTIMDSDKIMVLDSGKIVEYGSPEELLSNMGPFYLMAKEAGIESVNHTEL
- Km: 25.5 µM

Source: ChEMBL document CHEMBL2074291, “Species differences in the transport activity for organic anions across the bile canalicular membrane” (J Pharmacol Exp Ther, 1999)
